Assay results from patent publication US20160297891A1 (Zymeworks, published 2016).

Columns and labels:
[1] = target: T1, HER2 extracellular domain (soluble analyte in SPR) (human); assay: SPR, standard deviation of KD
[2] = target: T1, HER2 extracellular domain (soluble …); assay: SPR (Biacore T200), variant captured on anti-human Fc, Her2 injected, single cycle kinetics, 25 C
[3] = target: T1, HER2 extracellular domain (soluble …); assay: SPR, the reference itself

- STEDEV KD [1]: 4.2 nM
- Kd [2]: 14.9 nM
- KD_wt/KD_var [3]: 1 fold
B1: v4182, monovalent (one-armed) anti-HER2 antibody with a Fab derived from pertuzumab on chain A (antibody, IgG1)
heavy: EVQLVESGGGLVQPGGSLRLSCAASGFTFTDYTMDWVRQAPGKGLEWVADVNPNSGGSIYNQRFKGRFTLSVDRSKNTLYLQMNSLRAEDTAVYYCARNLGPSFYFDYWGQGTLVTVSSASTKGPSVFPLAPSSKSTSGGTAALGCLVKDYFPEPVTVSWNSGALTSGVHTFPAVLQSSGLYSLSSVVTVPSSSLGTQTYICNVNHKPSNTKVDKKVEPKSCDKTHTCPPCPAPELLGGPSVFLFPPKPKDTLMISRTPEVTCVVVDVSHEDPEVKFNWYVDGVEVHNAKTKPREEQYNSTYRVVSVLTVLHQDWLNGKEYKCKVSNKALPAPIEKTISKAKGQPREPQVYVYPPSRDELTKNQVSLTCLVKGFYPSDIAVEWESNGQPENNYKTTPPVLDSDGSFALVSKLTVDKSRWQQGNVFSCSVMHEALHNHYTQKSLSLSPG
chain: not shown
light: not shown
notes: also called OA-pert
